From patent publication US20200407424A1 (FRAUNHOFER GESELLSCHAFT ZUR F RDERUNG DER ANGEWANDTEN …, published 2020)
Where two headings read alike, the source gives them in different places. Each block holds one binder with its values, some of them ahead of it. Square brackets hold non-standard residues; d marks the D form. Ends that are not written are not given here. Cit = NC(=O)NCCC[C@H](N)C(=O)O

Assays:
[1] = biological target: T1, recombinant MHC class II protein of the HLA DRB1 1001 genotype (human); experiment: in vitro binding assay
T1 construct: construct not described

[2] = biological target: T2, recombinant MHC class II protein of the HLA DRB1 0401 genotype (human); experiment: in vitro binding assay
T2 construct: construct not described; also called HLA-DR0401

[3] = biological target: T3, recombinant MHC class II protein of the HLA DRB1 0101 genotype (human); experiment: in vitro binding assay
T3 construct: construct not described

[4] = biological target: T4, recombinant MHC class II protein of the HLA DRB1 0404 genotype (human); experiment: in vitro binding assay
T4 construct: construct not described

[5] = biological target: T2, recombinant MHC class II protein of the …; experiment: in vitro binding assay; remark: listed apart in the source
[6] = biological target: T1, recombinant MHC class II protein of the …; experiment: in vitro binding assay; remark: listed apart in the source
[7] = biological target: T3, recombinant MHC class II protein of the …; experiment: in vitro binding assay; remark: listed apart in the source
[8] = biological target: T5, recombinant MHC class II protein of the HLA DRB1 0408 genotype (human); experiment: in vitro binding assay
T5 construct: construct not described

[9] = biological target: T6, recombinant MHC class II protein of the HLA DRB1 0405 genotype (human); experiment: in vitro binding assay
T6 construct: construct not described

[10] = biological target: T2, recombinant MHC class II protein of the …; experiment: binds MHC in vitro
[11] = biological target: T4, recombinant MHC class II protein of the …; experiment: in vitro binding assay; remark: listed apart in the source
[12] = biological target: T2, recombinant MHC class II protein of the …; experiment: in vitro binding assay; remark: listed apart in the source
[13] = biological target: T3, recombinant MHC class II protein of the …; experiment: in vitro binding assay; remark: listed apart in the source
[14] = biological target: T6, recombinant MHC class II protein of the …; experiment: in vitro binding assay; remark: listed apart in the source
[15] = biological target: T4, recombinant MHC class II protein of the …; experiment: in vitro binding assay; remark: listed apart in the source
[16] = biological target: T5, recombinant MHC class II protein of the …; experiment: in vitro binding assay; remark: listed apart in the source

Binder: PKGANGDPG[Cit]PGEPG [citrullinated type II collagen peptide ref no 362]
binding result [1]: binds

Binder: APGN[Cit]GFPGQDGLAG [citrullinated type II collagen peptide ref no 357]
binding result [1]: binds

Binder: PQGPRGDKGEAGEPG [type II collagen peptide ref no 268]
binding result [1]: binds

Binder: KRIAKAVNEKSCNCL [a-enolase peptide ref no 66]
binding result [10]: binds
binding result [6]: no binding
binding result [7]: binds
binding result [8]: binds
binding result [9]: binds
binding result [11]: binds

Binder: GIVGLPGQRGERGFP [type II collagen peptide ref no 242]
binding result [12]: binds
binding result [13]: binds
binding result [14]: binds
binding result [15]: binds

Binder: GIVGLPGQRGERGFP [corresponding non-citrullinated peptide of type II collagen peptide 411]
binding result [2]: binds
binding result [4]: binds

Binder: [Cit]GPPGPQGA[Cit]GFPGT [citrullinated type II collagen peptide ref no 332]
binding result [12]: binds
binding result [14]: binds
binding result [15]: binds

Binder: TSKGLF[Cit]AAVPSGAS [citrullinated a-enolase peptide ref no 291]
binding result [6]: binds
binding result [7]: binds
binding result [8]: no binding
binding result [9]: binds
binding result [2]: binds
binding result [4]: binds

Binder: KRIAKAVNEKSCNCL [corresponding non-citrullinated peptide of a-enolase peptide 313]
binding result [2]: binds
binding result [3]: binds

Binder: PGLQGMPGERGAAGI [corresponding non-citrullinated peptide of type II collagen peptide 386]
binding result [4]: binds

Binder: AGFKGEQGPKGEPGP [type II collagen peptide ref no 138]
binding result [12]: binds
binding result [13]: binds

Binder: GDRGEAGAQGPMGPS [type II collagen peptide ref no 263]
binding result [1]: binds

The next lines start with the values.

binding result [2]: no binding
binding result [3]: binds
binding result [4]: binds
Binder: MSILKIHAREIFDSR [corresponding non-citrullinated peptide of a-enolase peptide 287]

binding result [2]: no binding
binding result [3]: binds
Binder: RYMGKGVSKAVEHIN [corresponding non-citrullinated peptide of a-enolase peptide 297]

binding result [5]: no binding
binding result [6]: no binding
binding result [7]: binds
binding result [8]: no binding
binding result [9]: binds
binding result [4]: binds
B1: a-enolase peptide ref no 6 (peptide)
peptide: TSKGLFRAAVPSGAS
notes: also called corresponding non-citrinullated peptide of 291

binding result [12]: binds
binding result [13]: binds
binding result [15]: binds
Binder: GEPGIAGFKGEQGPK [type II collagen peptide ref no 137]

binding result [1]: binds
binding result [16]: binds
Binder: QGP[Cit]GLPGTPGTDGP [citrullinated type II collagen peptide ref no 384]
